From patent US8822165B2, “Method for producing cAMP using chimeric olfactory receptor” (Panasonic Corporation, priority 2010, dated 2014)

How the values were obtained:
Assay type in all cases: cell-based
HEK293T cells [1] = assay: cAMP production by Olfr168-derived receptors expressed in HEK293T cells, 2-pentanone as agonist (Experiment 2)
Description: (§1) Subsequently, the HEK293T cells were transfected with the above-mentioned three plasmids by a lipofection method. The HEK293T cells were incubated for 48 hours, and the β1AR consisting of the protein represented by SEQ ID NO: 03 was expressed on the cell membrane of the HEK293T cell.
(§2) The abbreviation “IBMX” means 3-isobutyl-1-methylxanthine. The IBMX is one of the phosphodiesterase inhibitors. The IBMX stabilizes cAMP, which is unstable.
The expression was conducted similarly to that of the step 2 of the reference example 1 except that the plasmid (Rho-myc-Olfr168) was used instead of the plasmid (β1AR). In this way, the Rho-myc-Olfr168 (SEQ ID NO: 49) was expressed on a cell membrane.
The concentrations of the cAMP were measured similarly to the step 3 of the comparative example 1-1 except that 2-pentanone aqueous solutions having concentrations of 30 μM, 100 μM, 300 μM, 1000 μM, and 3000 μM were used as agonists instead of the eugenol aqueous solutions.
The expression was conducted similarly to that of the step 2 of the reference example 1 except that the plasmid (chimeraOlfr168) was used instead of the plasmid (β1AR). In this way, the chimeraOlfr168 (SEQ ID NO: 51) was expressed on a cell membrane.
The concentrations of the cAMP were measured similarly to the step 3 of the comparative example 2-1.

HEK293T cells [2] = assay: cAMP production by Olfr609-derived receptors expressed in HEK293T cells, vanillic acid as agonist (Experiment 4)
Description: as §1, §2
The expression was conducted similarly to that of the step 2 of the reference example 1 except that the plasmid (Rho-myc-Olfr609) was used instead of the plasmid (β1AR). In this way, the Rho-myc-Olfr609 (SEQ ID NO: 64) was expressed on a cell membrane.
Instead of the eugenol aqueous solutions, the concentrations of the cAMP were measured similarly to the step 3 of the comparative example 1-1 except that vanillic acid aqueous solutions having concentrations of 0.30 μM, 1 μM, 3 μM, 10 μM, and 30 μM were used as agonists.
The expression was conducted similarly to that of the step 2 of the reference example 1 except that the plasmid (chimeraOlfr609) was used instead of the plasmid (β1AR). In this way, the chimeraOlfr609 (SEQ ID NO: 69) was expressed on a cell membrane.
The concentrations of the cAMP were measured similarly to the step 3 of the comparative example 4-1.

HEK293T cells [3] = assay: cAMP production by Olfr15-derived receptors expressed in HEK293T cells, cyclohexanone as agonist (Experiment 3)
Description: as §1, §2
The expression was conducted similarly to that of the step 2 of the reference example 1 except that the plasmid (Rho-myc-Olfr15) was used instead of the plasmid (β1AR). In this way, the Rho-myc-Olfr15 (SEQ ID NO: 58) was expressed on a cell membrane.
Instead of the eugenol aqueous solutions, the concentrations of the cAMP were measured similarly to the step 3 of the comparative example 1-1 except that cyclohexanone aqueous solutions having concentrations of 30 μM, 100 μM, 300 μM, 1000 μM, and 3000 μM were used as agonists.
The expression was conducted similarly to that of the step 2 of the reference example 1 except that the plasmid (chimeraOlfr15) was used instead of the plasmid (β1AR). In this way, the chimeraOlfr15 (SEQ ID NO: 60) was expressed on a cell membrane.
The concentrations of the cAMP were measured similarly to the step 3 of the comparative example 3-1.

| Molecule | concentration of the cAMP (HEK293T cells [1]; 2-pentanone 0 μM) | concentration of the cAMP (HEK293T cells [1]; 2-pentanone 30 μM) | concentration of the cAMP (HEK293T cells [1]; 2-pentanone 100 μM) | concentration of the cAMP (HEK293T cells [1]; 2-pentanone 300 μM) | concentration of the cAMP (HEK293T cells [1]; 2-pentanone 1000 μM) | concentration of the cAMP (HEK293T cells [1]; 2-pentanone 3000 μM) | concentration of the cAMP (HEK293T cells [2]; vanillic acid 0 μM) | concentration of the cAMP (HEK293T cells [2]; vanillic acid 0.3 μM) | concentration of the cAMP (HEK293T cells [2]; vanillic acid 1 μM) | concentration of the cAMP (HEK293T cells [2]; vanillic acid 3 μM) | concentration of the cAMP (HEK293T cells [2]; vanillic acid 10 μM) | concentration of the cAMP (HEK293T cells [2]; vanillic acid 30 μM) | concentration of the cAMP (HEK293T cells [3]; cyclohexanone 0 μM) | concentration of the cAMP (HEK293T cells [3]; cyclohexanone 30 μM) | concentration of the cAMP (HEK293T cells [3]; cyclohexanone 100 μM) | concentration of the cAMP (HEK293T cells [3]; cyclohexanone 1000 μM) | concentration of the cAMP (HEK293T cells [3]; cyclohexanone 3000 μM) | also measured |
| --- | --- | --- | --- | --- | --- | --- | --- | --- | --- | --- | --- | --- | --- | --- | --- | --- | --- | --- |
| chimeraOlfr168: Rho-myc-Olfr168 where the IC4 domain was substituted with that of the beta-1 adrenergic receptor (protein, ChimeraOlfr168, Rho-myc-Olfr168 where the IC4 domain was substituted with that of the beta-1 adrenergic receptor) MNGTEGPNFYVPFSNKTGVVEQKLISEEDLEFMEKWNQSSSDFILLGLLPQNQTGLLLMMLIILVFFLALFGNSAMIHLIRVDPRLHTPMYFLLSQLSLMDLMYISTTVPKMAFNFLSGQKNISFLGCGVQSFFFLTMAGSEGLLLASMAYDRFVAICHPLHYPIRMSKIMCLKMIIGSWILGSINSLAHSIYALHIPYCHSRSINHFFCDVPAMLPLACMDTWVYEYMVFVSTSLFLLLPFLGITASYGRVLFAVFHMRSKEGKKKAFTTCSTHLTVVTFYYAPFVYTYLRPRSLRSPTEDKILTVFYTILTPMLNPIIYSLRNKDFRKAFQRLLCCARRAACRRRAAHGDRPRASGCLARAGPPPSPGAPSDDDDDDAGATPPARLLEPWAGCNGGTTTVDSDSSLDEPGRQGFSSESKV | 0.0187 | 0.0220 | 0.0270 | 0.0520 | 0.0775 | 0.0916 | – | – | – | – | – | – | – | – | – | – | – | concentration of the cAMP compared with Rho-myc-Olfr168 (in words) (HEK293T cells [1]; 2-pentanone, Table 6): much greater |
| chimeraOlfr609: IC4 domain of the Rho-myc-Olfr609 substituted with that of the beta-1 adrenergic receptor (protein, ChimeraOlfr 609, IC4 domain of the Rho-myc-Olfr609 substituted with that of the beta-1 adrenergic receptor) MNGTEGPNFYVPFSNKTGVVEQKLISEEDLEFMSYSNHSSTSFFLTGLPGLETVYLWLSIPLCTMYIASLAGNGLILWVVKSEPSLHQPMYYFLSMLAVTDLGLSVSTLPTMLTIYMMGVSEVALDMCLAQLFFIHTFSIMESSVLLTMAFDRVVAISSPLHYATILTNPRVASLGMVILVRSIGLHIPAPIMLKKLPYCQKRHLSHSYCLHPDVMKLACTDTRINSAYGLFVVLSTLGVDSVLIVLSYGLILYTVLSIASKTERLKALNTCVSHICSVLLFYTPMIGLSMIHRFGKWASPCSRVLLSYLHFLTPPVLNPVVYTIKTKDFRKAFQRLLCCARRAACRRRAAHGDRPRASGCLARAGPPPSPGAPSDDDDDDAGATPPARLLEPWAGCNGGTTTVDSDSSLDEPGRQGFSSESKV | – | – | – | – | – | – | 0.075 | 0.166 | 0.160 | 0.192 | 0.162 | 0.187 | – | – | – | – | – | concentration of the cAMP compared with Rho-myc-Olfr609 (in words) (HEK293T cells [2]; vanillic acid, Table 8): much greater |
| Rho-myc-Olfr609: Rho-tag, myc epitope tag and EC1-IC4 domains of the Olfr609, mouse olfactory receptor for vanillic acid (protein, Rho-myc-olfr609) MNGTEGPNFYVPFSNKTGVVEQKLISEEDLEFMSYSNHSSTSFFLTGLPGLETVYLWLSIPLCTMYIASLAGNGLILWVVKSEPSLHQPMYYFLSMLAVTDLGLSVSTLPTMLTIYMMGVSEVALDMCLAQLFFIHTFSIMESSVLLTMAFDRVVAISSPLHYATILTNPRVASLGMVILVRSIGLHIPAPIMLKKLPYCQKRHLSHSYCLHPDVMKLACTDTRINSAYGLFVVLSTLGVDSVLIVLSYGLILYTVLSIASKTERLKALNTCVSHICSVLLFYTPMIGLSMIHRFGKWASPCSRVLLSYLHFLTPPVLNPVVYTIKTKQIRQRIWRIFRCGGRSIGHIQGH | – | – | – | – | – | – | 0.014 | 0.070 | 0.076 | 0.127 | 0.067 | 0.071 | – | – | – | – | – | – |
| chimeraOlfr15: IC4 domain of the Rho-myc-Olfr15 substituted with that of the beta-1 adrenergic receptor (protein, ChimeraOlfr15, IC4 domain of the Rho-myc-Olfr15 substituted with that of the beta-1 adrenergic receptor) MNGTEGPNFYVPFSNKTGVVEQKLISEEDLEFMEVDSNSSSGSFILMGVSDHPHLEIIFFAVILASYLLTLVGNLTIILLSRLDARLHTPMYFFLSNLSSLDLAFTTSSVPQMLKNLWGPDKTISYGGCVTQLYVFLWLGATECILLVVMAFDRYVAVCRPLHYMTVMNPRLCWGLAAISWLGGLGNSVIQSTFTLQLPFCGHRKVDNFLCEVPAMIKLACGDTSLNEAVLNGVCTFFTVVPVSVILVSYCFIAQAVMKIRSVEGRRKAFNTCVSHLVVVFLFYGSAIYGYLLPAKSSNQSQGKFISLFYSVVTPMVNPLIYTLRNKDFRKAFQRLLCCARRAACRRRAAHGDRPRASGCLARAGPPPSPGAPSDDDDDDAGATPPARLLEPWAGCNGGTTTVDSDSSLDEPGRQGFSSESKV | – | – | – | – | – | – | – | – | – | – | – | – | 0.0282 | 0.0280 | 0.0250 | 0.0290 | 0.0916 | concentration of the cAMP compared with Rho-myc-olfr15 (in words) (HEK293T cells [3]; cyclohexanone, Table 7): much greater |
| Rho-myc-Olfr168: Rho-tag, myc epitope tag and EC1-IC4 domains of the Olfr168, mouse olfactory receptor for 2-pentanone (protein, Rho-myc-olfr168) MNGTEGPNFYVPFSNKTGVVEQKLISEEDLEFMEKWNQSSSDFILLGLLPQNQTGLLLMMLIILVFFLALFGNSAMIHLIRVDPRLHTPMYFLLSQLSLMDLMYISTTVPKMAFNFLSGQKNISFLGCGVQSFFFLTMAGSEGLLLASMAYDRFVAICHPLHYPIRMSKIMCLKMIIGSWILGSINSLAHSIYALHIPYCHSRSINHFFCDVPAMLPLACMDTWVYEYMVFVSTSLFLLLPFLGITASYGRVLFAVFHMRSKEGKKKAFTTCSTHLTVVTFYYAPFVYTYLRPRSLRSPTEDKILTVFYTILTPMLNPIIYSLRNKEVLGAMTRVLGTFSSMKP | 0.0215 | 0.0170 | 0.0170 | 0.0280 | 0.0400 | 0.0444 | – | – | – | – | – | – | – | – | – | – | – | – |
| Rho-myc-Olfr15: Rho-tag, myc epitope tag and EC1-IC4 domains of the Olfr15, mouse olfactory receptor for cyclohexanone (protein, Rho-myc-Olfr15) MNGTEGPNFYVPFSNKTGVVEQKLISEEDLEFMEVDSNSSSGSFILMGVSDHPHLEIIFFAVILASYLLTLVGNLTIILLSRLDARLHTPMYFFLSNLSSLDLAFTTSSVPQMLKNLWGPDKTISYGGCVTQLYVFLWLGATECILLVVMAFDRYVAVCRPLHYMTVMNPRLCWGLAAISWLGGLGNSVIQSTFTLQLPFCGHRKVDNFLCEVPAMIKLACGDTSLNEAVLNGVCTFFTVVPVSVILVSYCFIAQAVMKIRSVEGRRKAFNTCVSHLVVVFLFYGSAIYGYLLPAKSSNQSQGKFISLFYSVVTPMVNPLIYTLRNKEVKGALGRLLGKGRGAS | – | – | – | – | – | – | – | – | – | – | – | – | 0.0173 | 0.0180 | 0.0210 | 0.0280 | 0.0444 | – |
